# “Also recorded” adds a separate entry of the source.
# B1: Wnt3a: canonical Wnt ligand used to treat DCs (100 ng/mL) (protein, UniProt P56704 19-352, looked up)
# Protein Wnt-3a: SYPIWWSLAVGPQYSSLGSQPILCASIPGLVPKQLRFCRNYVEIMPSVAEGIKIGIQECQHQFRGRRWNCTTVHDSLAIFGPVLDKATRESAFVHAIASAGVAFAVTRSCAEGTAAICGCSSRHQGSPGKGWKWGGCSEDIEFGGMVSREFADARENRPDARSAMNRHNNEAGRQAIASHMHLKCKCHGLSGSCEVKTCWWSQPDFRAIGDFLKDKYDSASEMVVEKHRESRGWVETLRPRYTYFKVPTERDLVYYEASPNFCEPNPETGSFGTRDRTCNVSSHGIDGCDLLCCGRGHNARAERRREKCRCVFHWCCYVSCQECTRVYDVHTCK
# B2: Wnt5a: Wnt ligand used to treat DCs (200 ng/mL) (protein, UniProt P41221 62-380, looked up)
# Protein Wnt-5a: IIGAQPLCSQLAGLSQGQKKLCHLYQDHMQYIGEGAKTGIKECQYQFRHRRWNCSTVDNTSVFGRVMQIGSRETAFTYAVSAAGVVNAMSRACREGELSTCGCSRAARPKDLPRDWLWGGCGDNIDYGYRFAKEFVDARERERIHAKGSYESARILMNLHNNEAGRRTVYNLADVACKCHGVSGSCSLKTCWLQLADFRKVGDALKEKYDSAAAMRLNSRGKLVQVNSRFNSPTTQDLVYIDPSPDYCVRNESTGSLGTQGRLCNKTSEGMDGCELMCCGRGYDQFKTVQTERCHCKFHWCCYVKCKKCTEIVDQFVCK
# Tests used:
# [1] = test system: DC-induced CD4+ FoxP3+ Tregs; assay: In vitro Treg assay; type: cell-based, mouse; details: for DC-mediated Treg differentiation in vitro: pre-treated DCs co-cultured with naïve CD4+ T cells
# Procedure: In vivo Treg assay. DCs (C57, H-2^b) were pre-treated for 48 hours and delivered by intradermal injection into the footpad of Foxp3-mRFP mice. Draining inguinal and popliteal lymph nodes were resected 5 days later and analyzed for CD4^+ Foxp3^+ Tregs. In vitro Treg assay, DCs (Balb/c, H-2^d) were pre-treated for either 24 or 48 hrs, and re-plated at a 1:3 DC:T-cell ratio with purified naïve Foxp3-mRFP(H-2^b) CD4^+ Tcells. These co-cultures were incubated for 6 days and quantitated for CD4^+ FoxP3^+ Tregs by flow cytometry.
# (§1) Murine bone marrow-derived DCs (BMDCs) were harvested and differentiated as previously described and purified using CD11c microbeads (Miltenyi Biotec) according to manufacturer's protocol. DC purity was monitored by flow cytometry and consistently found to be >95% CD11c+F4/80-. BRAFV600EPTEN−/−-Wnt5aKD and BRAFV600EPTEN−/−-NTC cell lines were generated and cultured as previously described. DC2.4, a murine dendritic cell line was kindly provided by Dr. Kenneth L. Rock (University of Massachusetts Medical School), and cultured as previously described. DC2.4β-cateninKD, DC2.4-CPT1AKD, and DC2.4-NTC stable cell lines were generated using a β-catenin-targeted, CPT1A-targeted, or control shRNA-expressing lentivirus followed by puromycin selection. DCs were treated with Wnt3a (100 ng/mL), Wnt5a (200 ng/mL), LPS (1 μg/mL), 1-MT, 2DG (1 mM), or ETO (100 µM) vs vehicle control either for 24 or 48 hrs prior to their use in both in vitro and in vivo experiments.
# [2] = test system: bone marrow-derived DCs (BMDCs); assay: DC oxygen consumption rate (OCR) / OXPHOS, extracellular flux analysis; type: cell-based, murine; details: BMDCs treated with the agent alone vs untreated
# Procedure: (§2) DC energy metabolism was measured using the XF^e24 extracellular flux analyzer (Seahorse Bioscience), with the glycolysis stress test kit and the mitochondrial stress test kit as previously described (Everts et al., 2014; Zhao and Klimecki, 2015).
# as §1
# [3] = test system: bone marrow-derived DCs (BMDCs); assay: DC glycolysis, extracellular acidification rate (ECAR); type: cell-based, murine; details: with or without LPS
# Procedure: as §2, §1
# [4] = test system: DC intracellular PpIX; assay: PpIX flow cytometry analysis; type: cell-based, mouse; details: 48 hours treatment, then 1 mM δ-ALA 4 hrs
# Procedure: Dendritic cells were terminally incubated in the presence of 1 mM δ-aminolevulinic acid (ALA) for 4 hrs. Intracellular PpIX was analyzed by flow cytometry as previously described (Hryhorenko et al., 1998).
# [5] = test system: murine DCs; assay: qrt-PCR / ELISA gene and cytokine expression in murine DCs; type: cell-based; details: for PPAR-γ and CPT1A expression: murine primary DCs; for expression of key glycolytic enzymes (phosphofructokinase, hexokinase, pyruvate kinase): primary DCs
# Procedure: Total RNA was isolated by RNeasy Plus Mini Kit(Qiagen). RNA(500 ng) was used in cDNA Synthesis (iScript, BioRad). Quantification of mRNA for genes involved in PPARγ signaling was performed using Mouse PrimePCR PPAR Array according to the manufacturer's protocol (BioRad). Real-time PCR was performed using an ABI7500 Real-Time PCR system (Life Technologies). Data analysis utilized the PrimePCR Analysis Software (BioRad). Conventional qPCR was performed using validated primers (Table 1) and SsoAdvanced Universal SYBR Green Super mix (BioRad) or Taqman probes (Applied Biosystems) for heme synthesis enzymes.
# Murine IL-6 (eBioscience) and IL-12p40 (Becton Dickinson) ELISAs were performed according to manufacture's protocol.
# [6] = test system: human monocyte-derived DCs; assay: OCR analysis of human monocyte-derived DCs; type: cell-based; details: human monocyte-derived DCs, Wnt5a 48 hours
# Procedure: Human DCs were differentiated from harvested peripheral blood mononuclear cells and pre-treated with Wnt5a 48 hours prior to OCR analysis. Short-term incubation with ETO was performed prior to analysis.
# as §2
# (§3) Human Monocyte-derived Dendritic Cells were generated as previously described.
# [7] = test system: bone marrow-derived DCs (BMDCs); assay: Extracellular lactate assay; type: cell-based, murine; details: BMDC culture media 0-48 hours
# Procedure: L-Lactate levels were measured by lactate dehydrogenase conversion of L-lactate+NAD^+ to pyruvate+NADH following treatment with […] (Pesce et al., 1975). Lactate standards and samples were read at NADH specific absorbance 340 nm.
# [8] = test system: OT-1 CD8+ T cells; assay: T cell proliferation assay; type: cell-based, mouse; details: SIINFEKL-loaded BMDCs co-incubated with OT-1 splenocytes
# Procedure: Splenocytes of OT-1 mice (H-2^b) were isolated and stained with CellTrace Violet (ThermoFisher). Preconditioned DCs were loaded with ovalbumin peptide SIINFEKL, and co-cultured at a DC:splenocyte ratio of 40,000:120,000 cells for 72 hrs. CD8+ T cell proliferation was measured by the dilution of Cell Trace Violet dye by flow cytometry.
# [9] = test system: DC IDO; assay: IDO enzymatic assay (kynurenine HPLC); type: cell-based, mouse; details: purified DC cultures, Wnt5a or Wnt5a+ETO
# Procedure: DC IDO enzyme activity was measured by the conversion of L-tryptophan to L-kynurenine in conditioned media by HPLC (Pallotta et al., 2011). Intracellular hemin levels were measured using a colorimetric assay kit (BioVision).
# [10] = test system: human monocyte-derived DC; assay: PPARγ and CPT1A Western blot in human monocyte-derived DCs; type: cell-based
# Excerpt: (§4) Primary antibodies including CPT1A (Cell signaling), PPAR-γ (Santa Cruz Biotechnology), β-catenin, β-actin (Millipore), p-AMPK(T172)/AMPK (Cell signaling), p-AKT(T308)/Akt (Cell Signaling) were used at 1:1000. Secondary antibodies including goat anti-rabbit IgG-HRP (Millipore) and goat anti-mouse IgG-HRP (Millipore) were used at 1:5000. Cells were lysed in Laemmli sample buffer after treatment and subjected to SDS-polyacrylamide gel electrophoresis and immunoblot analysis. For immunoprecipitation, cells were lysed in radio immunoprecipitation assay (RIPA) buffer [10 mM sodium phosphate (pH 8.0), 150 mM NaCl, 1% Triton X-100, 1% sodium deoxycholate, and 0.1% SDS in the presence of 1 mM DTT, 1 mM phenylmethylsulfonylfluoride, and a protease inhibitor cocktail (Sigma)], precleared with protein A beads, and then incubated with 1 μg of antibody against β-catenin or isotype control IgG with protein A-agarose beads on a rotator overnight at 4° C. After 3 washes with RIPA buffer, immunoprecipitated complexes were eluted in sample buffer by boiling and subjected to immunoblot analysis. Immunoblots were visualized by chemiluminescence substrate (ThermoFisher) and imaged by a ChemiDoc XRSplus system (BioRad).
# as §3
# [11] = test system: BMDCs; assay: Immunoblot of p-AMPK(T172) and p-AKT(T308) in BMDCs; type: cell-based, murine; details: Wnt5a 200 ng/mL
# Excerpt: All data representative of 3 independent experiments.
# as §4
# [12] = test system: β-catenin-PPAR-γ complex; assay: β-catenin co-immunoprecipitation in primary DCs; type: cell-based, murine
# Excerpt: as §4
# [13] = test system: Dendritic Cells; assay: BODIPY and fatty acid uptake assay; type: cell-based, murine; details: TF2-C12 uptake, BODIPY
# Procedure: Dendritic Cells were stained in 0.5 μg/ml BODIPY 493/503 in PBS for 15 min to determine neutral lipid content (Herber et al., 2010). Fatty acid uptake measurement in DCs were performed using a dodecanoic acid fluorescent TF2-C12 fatty acid (Sigma) according to the manufacturer's protocol.
# [14] = test system: DCs; assay: DC ATP generation; type: cell-based; details: data not shown
molecule,measurement,setting,value
"O=CC[C@@H](O)[C@H](O)[C@H](O)CO [2-DG, 2-deoxyglucose]",DC-mediated Treg differentiation in vitro,[1],enhancement of DC-dependent Treg expansion; also recorded: enhanced Treg differentiation
Cn1cc(CC(N)C(=O)O)c2ccccc21 (stereo not drawn) [1-MT],DC-dependent Treg differentiation promoted by melanoma-derived conditioned media,[1]; DCs with BRAFV600E-PTEN−/− conditioned media,only modestly suppressed
NC(=O)c1ncn([C@@H]2O[C@H](CO)[C@@H](O)[C@H]2O)c1N [AICAR],DC OXPHOS (OCR),[2],suppresses OXPHOS
CC[C@H]1/C=C/C=C/C[C@@H](C)[C@H](O)[C@@](C)(O)C(=O)[C@@H](C)[C@H](O)[C@@H](C)C(=O)[C@@H](C)[C@H](O)[C@@H](C)/C=C/C(=O)O[C@@H]2[C@H](C)[C@H](CC1)O[C@]1(CC[C@H](C)[C@H](C[C@@H](C)O)O1)[C@H]2C [oligomycin],DC-mediated Treg differentiation in vitro,[1],potently suppressed Wnt5a induction of DC-mediated Treg differentiation; also recorded: almost complete elimination of these Treg populations
Oc1nc(-c2ccc(C(F)(F)F)cc2)nc2c1CSCC2 [XAV939],DC glycolysis (ECAR),[3],promote DC glycolysis
B1,DC OXPHOS (OCR),[2],no changes in either DC OXPHOS or glycosis
same,DC glycolysis (ECAR),[3],no changes in either DC OXPHOS or glycosis
same,DC levels of PpIX,[4],failed to enhance PpIX synthesis in DCs
same,PPAR-γ and CPT1A expression,[5],failed to induce the expression of both PPAR-γ and CPT1A in DCs
same,"expression of key glycolytic enzymes (phosphofructokinase, hexokinase, pyruvate kinase)",[5]; qrt-PCR,promotes the expression of key glycolytic enzymes
B2,DC OXPHOS (OCR),[2],strongly promoting DC OXPHOS; also recorded: promotes DC oxidative phosphorylation (OXPHOS)
same,OCR,[6],induces OCR in human monocyte-derived DCs
same,DC glycolysis (ECAR),[3],inhibits DC glycolysis; also recorded: inhibit LPS-mediated DC glycolysis; also recorded: eliminates the glycolytic reserve of DCs while also significantly suppressing the lipopolysaccharide (LPS)-induced glycolytic surge; also recorded: suppresses LPS-induced DC glycolysis
same,lactate production,[7],suppress lactate production
same,DC-mediated antigen-specific CD8+ T cell proliferation,[8],suppresses LPS-induced DC-mediated antigen-specific T cell proliferation
same,DC IDO enzymatic activity (kynurenine),[9],capable of promoting DC IDO enzymatic activity
same,DC levels of PpIX,[4],enhances DC levels of the PpIX prosthetic group in a manner that depends on the induction of FAO
same,IL-6 and IL-12 expression in primary DCs,"[5]; BMDCs, qrt-PCR",suppresses IL-6 and IL-12 expression in primary DCs
same,expression of ALAS1 and further PpIX/heme synthesis enzymes,"[5]; DCs, qrt-PCR",upregulate the expression of ALAS1 as well as several additional enzymes involved in PpIX synthesis
same,PPAR-γ and CPT1A expression,[5],directly induce CPT1a expression in a PPARγ-dependent manner; also recorded: induces the upregulation of PPAR-γ and CPT1A
same,"expression of key glycolytic enzymes (phosphofructokinase, hexokinase, pyruvate kinase)",[5]; qrt-PCR,suppresses the expression of key glycolytic enzymes; also recorded: suppress the expression of the key glycolytic enzymes
same,PPAR-γ and CPT1A expression,[10],induces the upregulation of PPAR-γ and CPT1A
same,AMPK activation (Thr-172 phospho-AMPK),[11]; 24 and 48 hrs,suppress AMPK activation
same,DC Akt Thr-308 phosphorylation,[11]; 48 hrs,no significant impact
same,PPAR-γ binding to β-catenin,[12],PPAR-γ to bind to β-catenin upon Wnt5a stimulation
same,DC fatty acid uptake and lipid stores,[13],enhance DC fatty acid uptake and lipid stores
same,DC ATP generation,[14],no net effect on DC ATP generation
